Experimental data as given in paper PMC9411207, “Designed peptides as nanomolar cross-amyloid inhibitors acting via supramolecular nanofiber co-assembly” (Nature Communications, 2022).
Square brackets hold non-standard residues; d marks the D form. Ends that are not written are not given here. NMeF = CN[C@@H](Cc1ccccc1)C(=O)O; NMeL = CN[C@@H](CC(C)C)C(=O)O; NMeV = CN[C@H](C(=O)O)C(C)C; Nle = CCCC[C@H](N)C(=O)O

T1: N-terminal fluorescein-labeled IAPP (human, UniProt P10997 34-70, fluorescein on the N-terminus; subjected to air-oxidation)
T1 construct: also called Fluos-IAPP; source: synthetic peptide (Fmoc-SPPS, air-oxidation, RP-HPLC purified)
T1 chain (looked up): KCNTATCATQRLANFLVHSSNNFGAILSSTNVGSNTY


The binders below were run against T2, Fluorescein-isothiocyanate-β-Ala-labeled Aβ42 (UniProt P05067 672-713, fluorescein-isothiocyanate-β-Ala on the N-terminus) (assay: other fluorescence titration; N-terminal fluorescently-labeled peptide (5 nM) titrated with unlabeled peptide; 10 mM sodium phosphate buffer, pH 7.4 (1% HFIP); measured within 2–5 min after preparation; apparent KDs from 1/1 binding models). Details: both partners purified.
T2 construct: amyloid-β peptide Aβ42, the 42-residue cut product of the amyloid precursor protein; also called FITC-Aβ42; N-terminal FITC-labeled Aβ42; source: bought: Bachem
T2 sequence (P05067 672-713): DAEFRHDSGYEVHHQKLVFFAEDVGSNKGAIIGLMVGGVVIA

| Binder | Kd [nM] |
| --- | --- |
| QKL[NMeV]F[NMeF]AEDFFFNKGAIIGL[Nle]VGGVV [F3-VF] | 161 |
| QKL[NMeV]F[NMeF]AEDLLLNKGAIIGL[Nle]VGGVV [L3-VF] | 38 |
| QK[NMeL]V[NMeF]FAED[Nle][Nle][Nle]NKGAIIGL[Nle]VGGVV [Nle3-LF] | 11.1 |
| QKL[NMeV]F[NMeF]AED[Nle][Nle][Nle]NKGAIIGL[Nle]VGGVV [Nle3-VF] | 14.5 |

The remaining binders from weak to strong by Kd, led by results:

| Kd [nM] | Binder |
| --- | --- |
| 431 | QK[NMeL]V[NMeF]FAEDFFFNKGAIIGL[Nle]VGGVV [F3-LF] |
| 2.6 | QK[NMeL]V[NMeF]FAEDLLLNKGAIIGL[Nle]VGGVV [L3-LF] |

Biological target: T1, N-terminal fluorescein-labeled IAPP
Test: as above
Details: both partners purified

| Binder | Kd [nM] |
| --- | --- |
| QKL[NMeV]F[NMeF]AEDFFFNKGAIIGL[Nle]VGGVV [F3-VF] | 15 |
| QKL[NMeV]F[NMeF]AEDLLLNKGAIIGL[Nle]VGGVV [L3-VF] | 77.3 |
| QK[NMeL]V[NMeF]FAED[Nle][Nle][Nle]NKGAIIGL[Nle]VGGVV [Nle3-LF] | 55.4 |
| QKL[NMeV]F[NMeF]AED[Nle][Nle][Nle]NKGAIIGL[Nle]VGGVV [Nle3-VF] | 69.5 |

The remaining lines, values ahead:

| Kd [nM] | Binder |
| --- | --- |
| 37.6 | QK[NMeL]V[NMeF]FAEDFFFNKGAIIGL[Nle]VGGVV [F3-LF] |
| 143 | QK[NMeL]V[NMeF]FAEDLLLNKGAIIGL[Nle]VGGVV [L3-LF] |

Biological target: the molecule itself
Test: SEC; Superdex 75 10/300 GL, 50 mM sodium phosphate pH 7.4, 100 mM NaCl; IAPP (16.5 µM) alone or with Nle3-VF (1/2) incubated in ThT buffer, 0 h and 96 h
Details: not given

| Binder | stoichiometry N |
| --- | --- |
| QKL[NMeV]F[NMeF]AED[Nle][Nle][Nle]NKGAIIGL[Nle]VGGVV [Nle3-VF] | 2 |
